Reference: IntAct's records for PubMed 31515488

B1: Elongin-A2 (Homo sapiens), Q8IYF1 (parent)
chain: MAAGSTTLHAVEKLQVRLATKTEPKKLEKYLQKLSALPMTADILAETGIRKTVKRLRKHQHVGDFARDLAARWKKLVLVDRNTRPGPQDPEESASRQRFGEALQDQEKAWGFPENATAPRSPSHSPEHRRTARRTPPGQQRPHPRSHSREPRAERKCPRIAPADSGRYRASPTRTAPLRMPEGPEPAAPGKQPGRGHTHAAQGGPLLCPGCQGQPQGKAVVSHSKGHKSSRQEKRPLCAQGDWHSPTLIREKSCGACLREETPRMPSWASARDRQPSDFKTDKEGGQAGSGQRVPALEEAPDSHQKRPQHSHSNKKRPSLDGRDPGNGTHGLSPEEKEQLSNDRETQEGKPPTAHLDRTSVSSLSEVEEVDMAEEFEQPTLSCEKYLTYDQLRKQKKKTGKSATTALGDKQRKANESKGTRESWDSAKKLPPVQESQSERLQAAGADSAGPKTVPSHVFSELWDLSEAWMQANYDPLSDSDSMTSQAKPEALSSPKFREEAAFPGRRVNAKMPVYSGSRPACQLQVPTLRQQCAQVLRNNPDALSDVGEVPYWVLEPVLEGWRPDQLYRRKKDNHALVRETDELRRNHCFQDFKEEKPQENKTWREQYLRLPDAPEQRLRVMTTNIRSARGNNPNGREAKMICFKSVAKTPYDTSRRQEKSAGDADPENGEIKPASKPAGSSHTPSSQSSSGGGRDSSSSILRWLPEKRANPCLSSSNEHAAPAAKTRKQAAKKVAPLMAKAIRDYKRRFSRR
partner: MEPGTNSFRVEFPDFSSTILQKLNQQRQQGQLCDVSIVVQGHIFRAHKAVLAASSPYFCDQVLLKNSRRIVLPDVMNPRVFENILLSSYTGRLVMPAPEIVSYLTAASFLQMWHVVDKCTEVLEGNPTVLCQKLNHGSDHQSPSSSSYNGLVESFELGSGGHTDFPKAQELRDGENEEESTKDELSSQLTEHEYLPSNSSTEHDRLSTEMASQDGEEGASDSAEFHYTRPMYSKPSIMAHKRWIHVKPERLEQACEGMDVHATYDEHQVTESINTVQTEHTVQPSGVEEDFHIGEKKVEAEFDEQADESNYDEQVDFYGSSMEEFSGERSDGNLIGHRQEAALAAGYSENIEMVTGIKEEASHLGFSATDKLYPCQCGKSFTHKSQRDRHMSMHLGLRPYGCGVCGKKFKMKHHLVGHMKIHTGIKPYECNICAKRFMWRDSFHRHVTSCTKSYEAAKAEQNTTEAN
B2: Nuclear protein AMMECR1 (Homo sapiens), Q9Y4X0 (parent)
chain: MAAGCCGVKKQKLSSSPPSGSGGGGGASSSSHCSGESQCRAGELGLGGAGTRLNGLGGLTGGGSGSGCTLSPPQGCGGGGGGIALSPPPSCGVGTLLSTPAAATSSSPSSSSAASSSSPGSRKMVVSAEMCCFCFDVLYCHLYGYQQPRTPRFTNEPYPLFVTWKIGRDKRLRGCIGTFSAMNLHSGLREYTLTSALKDSRFPPMTRDELPRLFCSVSLLTNFEDVCDYLDWEVGVHGIRIEFINEKGSKRTATYLPEVAKEQGWDHIQTIDSLLRKGGYKAPITNEFRKTIKLTRYRSEKMTLSYAEYLAHRQHHHFQNGIGHPLPPYNHYS
B3: Ankyrin repeat and BTB/POZ domain-containing protein 1 (Homo sapiens), Q969K4 (parent)
chain: MDTSDLFASCRKGDVGRVRYLLEQRDVEVNVRDKWDSTPLYYACLCGHEELVLYLLANGARCEANTFDGERCLYGALSDPIRRALRDYKQVTASCRRRDYYDDFLQRLLEQGIHSDVVFVVHGKPFRVHRCVLGARSAYFANMLDTKWKGKSVVVLRHPLINPVAFGALLQYLYTGRLDIGVEHVSDCERLAKQCQLWDLLSDLEAKCEKVSEFVASKPGTCVKVLTIEPPPADPRLREDMALLADCALPPELRGDLWELPFPCPDGFNSCPDICFRVAGCSFLCHKAFFCGRSDYFRALLDDHFRESEEPATSGGPPAVTLHGISPDVFTHVLYYMYSDHTELSPEAAYDVLSVADMYLLPGLKRLCGRSLAQMLDEDTVVGVWRVAKLFRLARLEDQCTEYMAKVIEKLVEREDFVEAVKEEAAAVAARQETDSIPLVDDIRFHVASTVQTYSAIEEAQQRLRALEDLLVSIGLDC
B4: L-fucose dehydrogenase (Homo sapiens), Q9BPX1 (parent)
chain: MATGTRYAGKVVVVTGGGRGIGAGIVRAFVNSGARVVICDKDESGGRALEQELPGAVFILCDVTQEDDVKTLVSETIRRFGRLDCVVNNAGHHPPPQRPEETSAQGFRQLLELNLLGTYTLTKLALPYLRKSQGNVINISSLVGAIGQAQAVPYVATKGAVTAMTKALALDESPYGVRVNCISPGNIWTPLWEELAALMPDPRATIREGMLAQPLGRMGQPAEVGAAAVFLASEANFCTGIELLVTGGAELGYGCKASRSTPVDAPDIPS

Variants of: B1
Details: with zbt43_human ZBTB43, O43298

| Variant | effect of a mutation on the interaction |
| --- | --- |
| A446T | with no effect |
| D302H | with no effect |
| C254F | disrupting interaction strength |
| G505R | with no effect |

Variants of: B2
Details: with rbpms_human RBPMS

| Variant | effect of a mutation on the interaction |
| --- | --- |
| R207G | with no effect |

Variants of: B3
Details: with ef1d_human EEF1D

| Variant | effect of a mutation on the interaction |
| --- | --- |
| R386H | with no effect |

Variants of: B3
Details: with ef1a2_human EEF1A2, Q05639
Chain of ef1a2_human EEF1A2, Q05639 (Q05639 whole entry): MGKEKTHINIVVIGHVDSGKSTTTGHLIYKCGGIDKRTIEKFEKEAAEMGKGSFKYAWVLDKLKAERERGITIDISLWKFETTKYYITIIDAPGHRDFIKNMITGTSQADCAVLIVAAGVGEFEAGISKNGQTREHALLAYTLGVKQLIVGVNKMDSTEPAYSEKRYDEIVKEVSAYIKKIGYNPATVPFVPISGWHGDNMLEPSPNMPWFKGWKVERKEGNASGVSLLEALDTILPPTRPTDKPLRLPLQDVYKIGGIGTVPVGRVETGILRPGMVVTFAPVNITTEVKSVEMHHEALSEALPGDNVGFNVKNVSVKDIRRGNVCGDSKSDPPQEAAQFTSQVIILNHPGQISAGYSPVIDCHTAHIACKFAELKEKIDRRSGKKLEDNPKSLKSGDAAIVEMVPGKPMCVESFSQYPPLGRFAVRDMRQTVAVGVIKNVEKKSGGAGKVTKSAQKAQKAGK

| Variant | effect of a mutation on the interaction |
| --- | --- |
| R386H | with no effect |

Variants of: B3
Details: with cul3_human CUL3, Q13618

| Variant | effect of a mutation on the interaction |
| --- | --- |
| R386H | with no effect |

Variants of: B4
Details: with psa1_human PSMA1, P25786
Chain of psa1_human PSMA1, P25786 (P25786 whole entry): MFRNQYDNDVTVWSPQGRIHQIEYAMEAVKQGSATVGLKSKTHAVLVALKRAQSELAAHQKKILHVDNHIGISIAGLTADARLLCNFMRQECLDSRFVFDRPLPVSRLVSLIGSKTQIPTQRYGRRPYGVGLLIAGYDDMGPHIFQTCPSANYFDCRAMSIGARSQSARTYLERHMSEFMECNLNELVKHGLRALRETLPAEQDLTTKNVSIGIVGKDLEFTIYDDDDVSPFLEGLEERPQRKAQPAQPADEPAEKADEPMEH

| Variant | effect of a mutation on the interaction |
| --- | --- |
| N31D | with no effect |

Variants of: B4
Details: with sr1ip_human SREK1IP1, Q8N9Q2
Chain of sr1ip_human SREK1IP1, Q8N9Q2 (Q8N9Q2 whole entry): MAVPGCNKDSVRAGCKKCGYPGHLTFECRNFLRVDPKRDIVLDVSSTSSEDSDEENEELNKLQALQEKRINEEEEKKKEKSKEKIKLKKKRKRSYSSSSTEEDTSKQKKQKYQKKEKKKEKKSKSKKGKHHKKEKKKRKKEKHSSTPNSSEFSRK

| Variant | effect of a mutation on the interaction |
| --- | --- |
| N31D | with no effect |

Variants of: B4
Details: with ntaq1_human NTAQ1, Q96HA8

| Variant | effect of a mutation on the interaction |
| --- | --- |
| N31D | with no effect |

Variants of: B4
Details: with phf1_human PHF1, O43189
Chain of phf1_human PHF1, O43189 (O43189 whole entry): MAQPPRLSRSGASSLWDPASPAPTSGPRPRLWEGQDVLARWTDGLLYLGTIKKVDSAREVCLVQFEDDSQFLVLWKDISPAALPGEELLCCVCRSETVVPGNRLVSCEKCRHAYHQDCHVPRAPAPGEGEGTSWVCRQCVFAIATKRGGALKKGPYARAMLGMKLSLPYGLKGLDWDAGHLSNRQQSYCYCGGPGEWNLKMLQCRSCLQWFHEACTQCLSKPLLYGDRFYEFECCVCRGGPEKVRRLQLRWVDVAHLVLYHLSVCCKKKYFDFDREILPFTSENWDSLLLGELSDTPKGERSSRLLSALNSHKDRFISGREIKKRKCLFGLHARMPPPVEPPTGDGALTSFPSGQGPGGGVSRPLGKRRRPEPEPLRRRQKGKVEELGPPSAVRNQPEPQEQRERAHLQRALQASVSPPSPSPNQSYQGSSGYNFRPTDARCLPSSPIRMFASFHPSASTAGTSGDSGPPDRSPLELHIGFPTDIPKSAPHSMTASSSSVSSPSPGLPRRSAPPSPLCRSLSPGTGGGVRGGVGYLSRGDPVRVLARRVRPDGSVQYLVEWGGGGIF

| Variant | effect of a mutation on the interaction |
| --- | --- |
| N31D | with no effect |

Variants of: B4
Details: with cah8_human CA8, P35219
Chain of cah8_human CA8, P35219 (P35219 whole entry): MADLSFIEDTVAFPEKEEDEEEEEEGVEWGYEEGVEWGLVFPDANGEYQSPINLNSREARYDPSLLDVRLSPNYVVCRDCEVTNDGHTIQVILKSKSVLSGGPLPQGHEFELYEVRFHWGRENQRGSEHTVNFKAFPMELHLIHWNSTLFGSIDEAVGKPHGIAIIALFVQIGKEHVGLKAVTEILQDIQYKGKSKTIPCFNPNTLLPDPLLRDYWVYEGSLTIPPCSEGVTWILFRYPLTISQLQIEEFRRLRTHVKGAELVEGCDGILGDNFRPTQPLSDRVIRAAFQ

| Variant | effect of a mutation on the interaction |
| --- | --- |
| N31D | with no effect |
